According to US20220031842A1 (JIANGSU HENGRUI MEDICINE, published 2022):

T1: LAG-3 extracellular domain with a Flag tag (human, UniProt P18627 23-434)
T1 construct: also called LAG-3-Flag; LAG-3-Flag antigen
T1 sequence: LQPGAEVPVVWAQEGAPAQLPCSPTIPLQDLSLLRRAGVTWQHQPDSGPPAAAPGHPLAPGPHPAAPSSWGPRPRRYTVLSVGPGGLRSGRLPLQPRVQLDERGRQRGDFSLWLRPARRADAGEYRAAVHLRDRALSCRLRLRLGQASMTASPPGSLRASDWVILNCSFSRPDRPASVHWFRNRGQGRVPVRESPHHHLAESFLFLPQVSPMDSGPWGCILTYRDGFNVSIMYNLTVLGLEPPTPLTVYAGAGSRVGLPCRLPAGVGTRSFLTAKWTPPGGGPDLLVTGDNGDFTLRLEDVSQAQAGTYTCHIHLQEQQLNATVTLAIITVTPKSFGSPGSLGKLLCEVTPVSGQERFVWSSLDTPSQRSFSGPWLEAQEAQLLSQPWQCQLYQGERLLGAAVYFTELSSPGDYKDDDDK

T2: Fusion protein of LAG-3 extracellular region and mIgG2a Fc (human)
T2 construct: Limits of the signal peptide are marked only by lost underlining; also called LAG-3-mFc; LAG-3-mFc fusion protein
T2 chain: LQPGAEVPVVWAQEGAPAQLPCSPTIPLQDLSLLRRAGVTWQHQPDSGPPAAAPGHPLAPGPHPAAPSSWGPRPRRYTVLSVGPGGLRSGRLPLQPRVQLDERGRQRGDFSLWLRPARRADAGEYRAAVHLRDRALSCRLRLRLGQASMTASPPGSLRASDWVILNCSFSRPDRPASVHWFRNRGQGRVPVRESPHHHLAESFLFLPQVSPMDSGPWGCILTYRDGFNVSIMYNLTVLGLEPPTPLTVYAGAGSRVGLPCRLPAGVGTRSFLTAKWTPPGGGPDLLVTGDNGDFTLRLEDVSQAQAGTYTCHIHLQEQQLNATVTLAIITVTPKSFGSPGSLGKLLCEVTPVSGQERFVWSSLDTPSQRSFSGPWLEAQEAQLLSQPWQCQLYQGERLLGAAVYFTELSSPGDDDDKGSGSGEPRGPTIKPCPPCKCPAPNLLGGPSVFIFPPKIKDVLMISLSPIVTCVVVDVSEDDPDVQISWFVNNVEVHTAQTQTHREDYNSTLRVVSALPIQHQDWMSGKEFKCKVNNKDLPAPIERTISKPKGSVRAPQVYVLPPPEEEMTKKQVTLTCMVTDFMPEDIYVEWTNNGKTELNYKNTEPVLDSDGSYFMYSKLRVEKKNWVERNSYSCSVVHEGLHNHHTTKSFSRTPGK


What was measured:
[1] = biological target: T1, LAG-3 extracellular domain with a Flag …; assay: SPR (Biacore), antibody captured on anti-human capture chip, LAG-3-Flag in flow
Excerpt: 2. […] Then, the LAG-3-Flag antigen (produced in-house, SEQ ID NO:1) was flowed through the surface of the biochip, and the reaction signal was detected real time using a Biacore instrument to obtain the binding and dissociation curves, the value of affinity was obtained by fitting, see table 10 below. After each cycle of dissociation was finished in the experiment, the biochip was washed and regenerated with a regeneration solution provided in the human anti-capture kit.

[2] = biological target: T3, Fusion protein of LAG-3 extracellular region and hIgG1 Fc (human); assay: competition: biotin-LAG-3-Fc binding to fixed Daudi cells, antibody titrated
T3 construct: Limits of the signal peptide are marked only by lost underlining; also called LAG-3-Fc; LAG-3-Fc fusion protein
Protocol: Daudi cells (human leukemia cells, purchased from the cell bank in Chinese Academy of Sciences) were seeded in 96-well plate with a density of 3×10⁵/well. After centrifugation at 1000 rpm, the supernatant was discarded and then the plate was fixed with 4% PFA for 30 min at room temperature. The plate was washed 4 times with PBS after discarding the fixed solution, and the plate was blocked with 200 μl/well of blocking solution containing 5% skim milk (Bright Dairy, skim milk powder) diluted in PBS, and incubated at 37° C. for 2.5 hours. After blocking, the blocking solution was discarded and the plate was washed 5 times with PBST buffer (pH7.4 PBS containing 0.05% tween-20), added with 50 μl/well mixture of biotin-labeled (Biotin labeling kit, Dojindo Chemical, Cat No. LK03) LAG-3-Fc fusion protein (produced in-house, SEQ ID NO: 3) and gradient concentrations of the antibody to be tested, wherein the biotin-labeled LAG-3-Fc fusion protein has been diluted with sample diluent (PH7.4 PBS containing 1% BSA) at a final concentration of 0.4 μg/ml, and pre-mixed for an hour, then the plate was incubated at 37° C. for 1 h. The reaction solution was discarded and the plate was washed 5 times with PBST after incubation, 50 μl/well of HRP-labeled Streptavidin (Sigma, Cat No. 52438) diluted with sample diluent was added, and the plate was incubated at 37° C. for 1 h. After washing the plate 5 times with PBST, 50 μl/well of TMB chromogenic substrate (KPL, Cat No. 52-00-03) was added to each well, and incubated at room temperature for 5-15 min, the reaction was stopped by the addition of 50 μl 1M H₂SO₄ to each well. The OD value at a wavelength of 450 nm was read on NOVOStar microplate reader, and then the activity of the LAG-3 antibody in blocking the binding of the antigen to Daudi cells was calculated.

[3] = biological target: T2, Fusion protein of LAG-3 extracellular …; assay: ELISA, LAG-3-mFc captured by anti-mouse Fc on plate (which fusion: inferred)
Excerpt: The binding ability of anti-LAG-3 antibody to human LAG-3 protein was detected by ELISA assay. LAG-3 fusion protein with Fc or mFc tag was immobilized into 96-well microtiter plate by binding to anti-Fc or anti-mFc antibody coated on the microtiter plate, the strength of the signal after the addition of the antibody was used to determine the binding activity of the antibody to LAG-3, the specific experimental method is as follows.
The goat anti-human Fc antibody (Jackson Immuno Research, Cat No. 109-005-008) or goat anti-mouse Fc antibody (Sigma, Cat No. M3534-1ML) was diluted to a concentration of 2 μg/ml with PBS buffer at pH 7.4 (Sigma, Cat No. P4417-100TAB), and added to a 96-well plate at a volume of 50 μl/well and then, the plate was incubated in the incubator at 37° C. for 2 hours. After discarding the liquid, the plates were blocked with 200 μl/well of blocking solution containing 5% skim milk (Bright Dairy, skim milk powder) in PBS, and incubated in the incubator at 37° C. for 2.5 hours or overnight at 4° C. (16-18 hours). After blocking, the blocking solution was discarded and the plate was washed 5 times with PBST buffer (PH7.4 PBS containing 0.05% tween-20). LAG-3-Fc fusion protein (SEQ ID NO:3, produced in-house) or LAG-3-mFc fusion protein (SEQ ID NO: 4, produced in-house) was diluted with sample diluent (PH7.4 PBS containing 1% BSA) to 1 μg/ml and was added to each well, 50 μl/well. Then the plate was incubated in the incubator at 37° C. for 1 h or overnight at 4° C. After incubation, the reaction solution in the plate was discarded, and the plate was washed with PBST for 6 times, and then was added with 50 μl/well of various concentrations of antibodies to be tested (hybridoma purified antibody or humanized antibody) which have been diluted with sample diluent, and the plate was incubated at 37° C. for 1 h. The plates was washed 5 times with PBST after incubation, and was added with 100 μl/well of goat anti-mouse (Jackson Immuno Research, Cat No. 115-035-003) or goat anti-human secondary antibody (Jackson Immuno Research, Cat No. 109-035-003) labeled with HRP, diluted in sample diluent, and the plate was incubated at 37° C. for 1 h.

T3 sequence (chain, as listed by the source limits assumed): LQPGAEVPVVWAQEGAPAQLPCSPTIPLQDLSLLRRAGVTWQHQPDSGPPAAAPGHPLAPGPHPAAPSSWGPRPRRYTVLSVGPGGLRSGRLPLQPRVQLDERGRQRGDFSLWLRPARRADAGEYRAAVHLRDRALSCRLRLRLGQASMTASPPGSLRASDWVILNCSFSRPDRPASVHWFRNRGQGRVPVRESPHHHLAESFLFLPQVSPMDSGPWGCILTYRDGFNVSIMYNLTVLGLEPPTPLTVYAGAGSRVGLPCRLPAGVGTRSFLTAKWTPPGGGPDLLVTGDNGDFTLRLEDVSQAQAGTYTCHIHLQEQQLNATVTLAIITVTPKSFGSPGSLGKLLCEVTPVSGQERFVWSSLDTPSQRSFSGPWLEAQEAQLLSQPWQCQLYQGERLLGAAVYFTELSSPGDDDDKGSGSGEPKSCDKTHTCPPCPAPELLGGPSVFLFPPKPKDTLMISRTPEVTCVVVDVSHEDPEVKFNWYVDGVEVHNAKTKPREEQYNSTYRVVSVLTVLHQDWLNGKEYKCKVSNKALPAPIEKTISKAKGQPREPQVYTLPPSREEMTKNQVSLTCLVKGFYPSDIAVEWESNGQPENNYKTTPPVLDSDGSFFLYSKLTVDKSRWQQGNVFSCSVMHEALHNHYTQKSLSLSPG

| Kd [1] [nM] | IC50 [2] [nM] | EC50 [3] [nM] | Binder |
| --- | --- | --- | --- |
| 0.0281 | 0.39 | 0.106 | Hu229-013 (antibody, human IgG4 S228P, kappa, V domains shown, also called LAG-3 antibody Hu229-013; LAG3 antibody Hu229-013) VH: QVQLVQSGSELKKPGASVKVSCKASGYTFTTSGMSWVKQAPGQGLKWMGWINTYSGVPTYADDFKGRFVFSLDTSVSTAYLQISSLKAEDTATYYCARDNYDARDVYYYAMDYWGQGTTVTVSS VL: DIQMTQSPSSLSASVGDRVTITCRASENIYSNLAWYQQKPGKAPKLLVYAATNLADGVPSRFSGSGSGTDYTLTISSLQPEDFATYYCQHFWITPWTFGGGTKVEIKR |
| 0.147 | 0.346 | 0.137 | Hu303-010 (antibody, human IgG4 S228P, kappa, V domains shown, Humanized mAb303) VH: QVQLVQSGAEVKKPGASVKVSCKASGYTFTDYYMNWVRQAPGQRLEWMGVINPYNGDTAYNQKFKGRVTITVDKSASTAYMELSSLRSEDTAVYYCTRDDGYYDYYFDVWGQGTTVTVSS VL: DIQMTQSPSSLSASVGDRVTITCRASQDIGSRLNWYQQKPGKAPKRLIYATSTLDSGVPSRFSGSRSGTDFTLTISSLQPEDFATYYCLQLASSPPTFGGGTKVEIKR |
